Target: T1, VexR-MBP (Vibrio cholerae O1 El Tor N16961) (UniProt Q9KVI0)
T1 sequence: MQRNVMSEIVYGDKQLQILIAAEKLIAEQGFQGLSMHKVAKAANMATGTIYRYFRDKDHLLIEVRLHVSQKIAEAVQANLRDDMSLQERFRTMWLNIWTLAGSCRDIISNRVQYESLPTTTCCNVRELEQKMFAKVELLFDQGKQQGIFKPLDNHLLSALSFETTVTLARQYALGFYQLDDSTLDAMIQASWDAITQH
Assay: EMSA

| Sequence | binding |
| --- | --- |
| GCGGGAGTCGGCAGCGATAATAATCCGCTCACCGAGGATTACCAACAAAGAAACTGCCTTTACAAAAATTTACTGCACAAGTGTATTGCAAAACAGGGGCGCTGCCGACTCCCGC (double strand) [vexR1] | no binding |
| GCGGGAGTCGGCAGCGGCCGTACACTATTTCAGACATCACATTTCTCTGCAAATGAACGGTTGTTCATTATAGCGGCTAATACCCCCTGTTTTGCACGCTGCCGACTCCCGC (double strand) [vexR2] | binds |
